According to PMC8403554 (Cell, 2019):

B2: tetrameric βI-tryptase (insect cells) (enzyme)
chain: not shown

What was measured:
[1] = molecular target: B2; assay: crystal structure
[2] = molecular target: the molecule itself; assay: SEC
[3] = molecular target: human βI-tryptase monomer (Homo sapiens, beta-I allele of TPSAB1, UniProt Q15661); assay: SPR
Chain of human βI-tryptase monomer (Q15661 31-275): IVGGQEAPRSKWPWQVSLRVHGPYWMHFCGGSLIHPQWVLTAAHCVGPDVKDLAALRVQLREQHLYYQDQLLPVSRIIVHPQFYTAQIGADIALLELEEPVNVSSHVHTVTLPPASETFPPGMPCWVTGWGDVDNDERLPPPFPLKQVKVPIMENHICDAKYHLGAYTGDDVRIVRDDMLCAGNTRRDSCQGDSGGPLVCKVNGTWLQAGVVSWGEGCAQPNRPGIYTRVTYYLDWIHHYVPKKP

B1: soybean trypsin inhibitor (natural protein, UniProt P01070 25-205, looked up)
chain: DFVLDNEGNPLENGGTYYILSDITAFGGIRAAPTGNERCPLTVVQSRNELDKGIGTIISSPYRIRFIAEGHPLSLKFDSFAVIMLCVGIPTEWSVVEDLPEGPAVKIGENKDAMDGWFRLERVSDDEFNNYKLVFCPQQAEDDKCGDIGISIDHDDGTRRLVVSKNKPLVVQFQKLDKESL
binding result [1]: binds

B2
stoichiometry N [2]: 4

B3: humanized 31A.v11 IgG4 anti-tryptase antibody (antibody, V domains shown)
VH: EVQLVESGGGLVQPGGSLRLSCAASGFTFSDYGMVWVRQAPGKGLEWVAFISSGSSTVYYADTMKGRFTISRDNSKNTLYLQMNSLRAEDTAVYYCTRRNYDDWYFDVWGQGTLVTVSS
VL: DIQMTQSPSSLSASVGDRVTITCSASSSVTYMYWYQQKPGKSPKPWIYRTSDLASGVPSRFSGSGSGTDFTLTISSLQPEDFATYYCQHYHSYPLTFGQGTKVEIK
fold improvement in binding affinity (Kd) over the parental 31A clone [3]: ~10 fold
